Patent publication US20240391992A1 (Eli Lilly, published 2024)
Numbering of substitutions follows the chain as printed. Blank lines part the entries; values can stand above or below the molecule they belong to.

Experiments:
[1] = target: cynomolgus (cyno) XCL1 (cynomolgus); experiment: flow cytometry, 293T cells with 1 ug/mL chemokine and 100 nM isotype control antibody, anti-human-Fc/PE
[2] = target: human XCL1 (human) (UniProt P47992); experiment: as above
[3] = target: human XCL2 (human) (UniProt Q9UBD3); experiment: as above
[4] = target: mouse XCL1 (mouse) (UniProt P47993); experiment: as above
Chain of mouse XCL1 (mouse) (P47993 22-114 limits assumed): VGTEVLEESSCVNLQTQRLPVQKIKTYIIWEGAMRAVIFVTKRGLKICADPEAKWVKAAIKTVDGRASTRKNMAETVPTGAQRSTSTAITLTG

[5] = target: rat XCL1 (rat) (UniProt P51672); experiment: as above
Chain of rat XCL1 (rat) (P51672 22-114 limits assumed): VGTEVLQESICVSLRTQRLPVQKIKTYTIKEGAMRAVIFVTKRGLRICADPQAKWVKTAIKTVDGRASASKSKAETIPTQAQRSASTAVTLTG

[6] = target: T1, human XCR1 (human, UniProt P46094 1-333); experiment: cell-based or functional assay
T1 sequence (looked up): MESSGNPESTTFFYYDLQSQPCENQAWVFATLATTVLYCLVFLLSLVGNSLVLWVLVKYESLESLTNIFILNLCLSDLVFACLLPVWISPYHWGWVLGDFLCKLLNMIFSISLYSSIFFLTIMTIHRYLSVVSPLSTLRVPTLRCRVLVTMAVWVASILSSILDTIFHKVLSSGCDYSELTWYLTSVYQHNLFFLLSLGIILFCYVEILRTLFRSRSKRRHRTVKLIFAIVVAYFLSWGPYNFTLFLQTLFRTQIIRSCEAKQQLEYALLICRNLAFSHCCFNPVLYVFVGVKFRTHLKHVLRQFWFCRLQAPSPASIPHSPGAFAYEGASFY

MFI [1]: 8.4 MFI
MFI [2]: 7.6 MFI
MFI [3]: 8.6 MFI
MFI [4]: 8 MFI
MFI [5]: 8.2 MFI
Molecule: hIgG1-AAS isotype control antibody

GeoMean EC50 (nM), migration of XCR1-expressing Ba/F3 cells (Boyden chamber) [6]: 858 nM
B1: human XCL1 (ligand)
chain: VGSEVSDKRTCVSLTTQRLPVSRIKTYTITEGSLRAVIFITKRGLKVCADPQATWVRDVVRSMDRKSNTRNNMIQTKPTGTQQSTNTAVTLTG

GeoMean EC50 (nM), migration of XCR1-expressing Ba/F3 cells (Boyden chamber) [6]: 115 nM
B2: Human XCL1 CC3 (ligand)
chain: B1 chain with V21C, V59C
